Assay results as given in patent US20250179210A1 (Merck KGaA, published 2025).
Read-outs that look alike come from different tables or passages of the source.

Assays:
Test in all cases: cell-based or functional assay
[1] = molecular target: T1, human CEACAM5 expressed on human cancer cell lines (MKN-45, NCI-H441, SK-CO-1, SNU-16, LS174T) (human, UniProt P06731 35-685)
T1 sequence: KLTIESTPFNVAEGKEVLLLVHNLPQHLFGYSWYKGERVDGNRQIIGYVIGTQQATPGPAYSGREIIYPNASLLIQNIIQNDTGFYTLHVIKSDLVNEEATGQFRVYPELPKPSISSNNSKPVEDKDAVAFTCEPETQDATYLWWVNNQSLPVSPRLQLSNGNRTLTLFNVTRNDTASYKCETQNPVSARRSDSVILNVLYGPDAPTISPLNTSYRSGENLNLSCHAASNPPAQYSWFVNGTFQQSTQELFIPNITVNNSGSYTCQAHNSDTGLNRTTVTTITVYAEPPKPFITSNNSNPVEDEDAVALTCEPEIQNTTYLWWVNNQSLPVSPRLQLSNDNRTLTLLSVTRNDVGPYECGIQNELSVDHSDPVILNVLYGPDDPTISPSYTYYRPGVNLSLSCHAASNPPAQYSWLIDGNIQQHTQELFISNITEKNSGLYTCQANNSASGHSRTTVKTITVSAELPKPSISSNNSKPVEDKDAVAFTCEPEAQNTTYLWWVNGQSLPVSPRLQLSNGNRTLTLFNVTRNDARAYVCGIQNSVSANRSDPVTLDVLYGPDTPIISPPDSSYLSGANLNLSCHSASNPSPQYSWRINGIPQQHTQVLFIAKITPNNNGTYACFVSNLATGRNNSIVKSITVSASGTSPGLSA

[2] = molecular target: T1, human CEACAM5 expressed on human cancer …; remark: listed apart in the source
[3] = molecular target: T1, human CEACAM5 expressed on human cancer …; remark: listed apart in the source
[4] = molecular target: T1, human CEACAM5 expressed on human cancer …; remark: listed apart in the source

B1: ADC1-M (conjugate of mAb1-M with DL1) (antibody, human IgG1, kappa, L234A L235A)
heavy: EVQLQESGPGLVKPSQTLSLTCTVSDGSVSRGGYYLTWIRQHPGKGLEWIGYIYYSGSTYFNPSLRSRVTMSVDTSKNQFSLKLSSVTAADTAVYYCARGIAVAPFDYWGQGTLVTVSSASTKGPSVFPLAPSSKSTSGGTAALGCLVKDYFPEPVTVSWNSGALTSGVHTFPAVLQSSGLYSLSSVVTVPSSSLGTQTYICNVNHKPSNTKVDKRVEPKSCDKTHTCPPCPAPEAAGGPSVFLFPPKPKDTLYITREPEVTCVVVDVSHEDPEVKFNWYVDGVEVHNAKTKPREEQYNSTYRVVSVLTVLHQDWLNGKEYKCKVSNKALPAPIEKTISKAKGQPREPQVYTLPPSREEMTKNQVSLTCLVKGFYPSDIAVEWESNGQPENNYKTTPPVLDSDGSFFLYSKLTVDKSRWQQGNVFSCSVMHEALHNHYTQKSLSLSPG
light: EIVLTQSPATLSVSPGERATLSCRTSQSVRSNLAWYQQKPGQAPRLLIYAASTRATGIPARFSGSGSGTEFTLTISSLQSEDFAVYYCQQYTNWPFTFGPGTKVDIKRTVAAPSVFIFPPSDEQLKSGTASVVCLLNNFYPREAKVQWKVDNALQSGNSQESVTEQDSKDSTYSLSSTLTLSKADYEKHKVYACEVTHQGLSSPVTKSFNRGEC
modifications: DL1 by interchain cysteine conjugation; DL1 (maleimido-b-glucuronide-exatecan) by interchain cysteine conjugation; DAR 8.16
- SPECIFICITY FACTOR (IC50 in CEACAM5-negative MDA-MB-231 divided by IC50 in MKN-45) [1]: 201 fold
- SPECIFICITY FACTOR (IC50 in CEACAM5-negative MDA-MB-231 divided by IC50 in SK-CO-1) [1]: 874 fold
- SPECIFICITY FACTOR (IC50 in CEACAM5-negative MDA-MB-231 divided by IC50 in SNU-16) [1]: 242 fold
- IC50 [M], cell viability assay (Cell Titer-Glo, 6 days), LS174T cells [2]: 6e-10 M
- IC50 [M], cell viability assay (Cell Titer-Glo, 6 days), MKN-45 cells [2]: 5.2e-10 M
- IC50 [M], cell viability assay (Cell Titer-Glo, 6 days), SK-CO-1 cells [2]: 7.6e-11 M
- IC50 [M], cell viability assay (Cell Titer-Glo, 6 days), SNU-16 cells [2]: 3.6e-10 M

B2: ADC2-M (conjugate of mAb2-M with DL1-M) (antibody, human IgG1, kappa, L234A L235A)
heavy: EVQLQESGPGLVKPSQTLSLTCTVSDGSVSRGGYYLTWIRQHPGKGLEWIGYIYYSGSTYFNPSLRSRVTMSVDTSKNQFSLKLSSVTAADTAVYYCARGIAVAPFDYWGQGTLVTVSSASTKGPSVFPLAPSSKSTSGGTAALGCLVKDYFPEPVTVSWNSGALTSGVHTFPAVLQSSGLYSLSSVVTVPSSSLGTQTYICNVNHKPSNTKVDKRVEPKSCDKTHTCPPCPAPEAAGGPSVFLFPPKPKDTLYITREPEVTCVVVDVSHEDPEVKFNWYVDGVEVHNAKTKPREEQYNSTYRVVSVLTVLHQDWLNGKEYKCKVSNKALPAPIEKTISKAKGQPREPQVYTLPPSREEMTKNQVSLTCLVKGFYPSDIAVEWESNGQPENNYKTTPPVLDSDGSFFLYSKLTVDKSRWQQGNVFSCSVMHEALHNHYTQKSLSLSPG
light: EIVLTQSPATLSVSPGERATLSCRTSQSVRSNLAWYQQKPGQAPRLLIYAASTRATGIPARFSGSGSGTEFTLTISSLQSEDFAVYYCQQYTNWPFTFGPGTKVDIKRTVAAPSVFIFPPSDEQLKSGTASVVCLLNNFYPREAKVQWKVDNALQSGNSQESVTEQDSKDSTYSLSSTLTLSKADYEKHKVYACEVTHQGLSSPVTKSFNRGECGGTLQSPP
modifications: MTG tag GGTLQSPP at the C-terminus is a conjugation site for DL1-M; DL1-M (NH2-GGG-b-glucuronide-exatecan) coupled by microbial transglutaminase; DAR 3.86 for the whole antibody; residues carrying the drug not stated
- SPECIFICITY FACTOR (IC50 in MDA-MB-231, set to 100 nM, divided by IC50 in MKN-45) [1]: > 167 fold
- SPECIFICITY FACTOR (IC50 in MDA-MB-231, set to 100 nM, divided by IC50 in SK-CO-1) [1]: > 632 fold
- SPECIFICITY FACTOR (IC50 in MDA-MB-231, set to 100 nM, divided by IC50 in SNU-16) [1]: > 207 fold
- IC50 [M], cell viability assay (Cell Titer-Glo, 6 days), LS174T cells [2]: 8.5e-10 M
- IC50 [M], cell viability assay (Cell Titer-Glo, 6 days), MKN-45 cells [2]: 1.2e-09 M
- IC50 [M], cell viability assay (Cell Titer-Glo, 6 days), SK-CO-1 cells [2]: 1.1e-10 M
- IC50 [M], cell viability assay (Cell Titer-Glo, 6 days), SNU-16 cells [2]: 5.1e-09 M

B3: ADC1 (mAb1-glucuronid-exatecan) (antibody, human IgG1, kappa)
heavy: EVQLQESGPGLVKPSQTLSLTCTVSDGSVSRGGYYLTWIRQHPGKGLEWIGYIYYSGSTYFNPSLRSRVTMSVDTSKNQFSLKLSSVTAADTAVYYCARGIAVAPFDYWGQGTLVTVSSASTKGPSVFPLAPSSKSTSGGTAALGCLVKDYFPEPVTVSWNSGALTSGVHTFPAVLQSSGLYSLSSVVTVPSSSLGTQTYICNVNHKPSNTKVDKRVEPKSCDKTHTCPPCPAPPVAGPSVFLFPPKPKDTLMISRTPEVTCVVVDVSHEDPEVKFNWYVDGVEVHNAKTKPREEQYNSTYRVVSVLTVLHQDWLNGKEYKCKVSNKALPSSIEKTISKAKGQPREPQVYTLPPSREEMTKNQVSLTCLVKGFYPSDIAVEWESNGQPENNYKTTPPVLDSDGSFFLYSKLTVDKSRWQQGNVFSCSVMHEALHNHYTQKSLSLSPG
light: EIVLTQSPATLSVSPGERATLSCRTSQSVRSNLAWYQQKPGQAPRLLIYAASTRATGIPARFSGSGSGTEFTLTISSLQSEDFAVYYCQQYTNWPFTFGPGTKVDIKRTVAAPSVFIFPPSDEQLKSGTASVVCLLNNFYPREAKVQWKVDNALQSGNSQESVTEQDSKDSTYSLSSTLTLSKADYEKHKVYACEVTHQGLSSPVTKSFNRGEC
modifications: drug-linker DL1 on the reduced interchain cysteine; drug-linker DL1 (maleimido-beta-glucuronide-exatecan) on sulfur of reduced interchain cysteines; DAR 7.9 for the whole antibody
- IC50 [M], cell viability assay (Cell Titer-Glo, 6 days), LS174T cells [3]: 3.8e-10 M
- IC50 [M], cell viability assay (Cell Titer-Glo, 6 days), MKN-45 cells [3]: 6.2e-10 M
- IC50 [M], cell viability assay (Cell Titer-Glo, 6 days), SK-CO-1 cells [3]: 8.5e-11 M
- IC50 [M], cell viability assay (Cell Titer-Glo, 6 days), SNU-16 cells [3]: 3.2e-10 M
- fold higher potency than ADC SAR DM4 against SK-CO-1 cells (viability assay) [4]: 2.9 fold
